Test results reported in US20210246166A1 (Bayer, published 2021).
Bridge positions count the residues as written; N and C are the ends. Square brackets hold non-standard residues; d marks the D form. Ends that are not written are not given here. Oic = O=C(O)[C@@H]1C[C@@H]2CCCC[C@@H]2N1; PEG8 = NCCOCCOCCOCCOCCOCCOCCOCCOCCC(=O)O; tBuAla = CC(C)(C)C[C@H](N)C(=O)O; PEG4 = NCCOCCOCCOCCOCCC(=O)O; Pen = CC(C)(S)[C@H](N)C(=O)O; Tranexamic = tranexamic acid; 4Amb = NCc1ccc(C(=O)O)cc1; NMeC = CN[C@@H](CS)C(=O)O; Sar = CNCC(=O)O

T1: recombinant rat MASP1 active protease (amino acids 302-704, C-terminal His Tag) (rat, UniProt Q8CHN8 302-704)
T1 sequence: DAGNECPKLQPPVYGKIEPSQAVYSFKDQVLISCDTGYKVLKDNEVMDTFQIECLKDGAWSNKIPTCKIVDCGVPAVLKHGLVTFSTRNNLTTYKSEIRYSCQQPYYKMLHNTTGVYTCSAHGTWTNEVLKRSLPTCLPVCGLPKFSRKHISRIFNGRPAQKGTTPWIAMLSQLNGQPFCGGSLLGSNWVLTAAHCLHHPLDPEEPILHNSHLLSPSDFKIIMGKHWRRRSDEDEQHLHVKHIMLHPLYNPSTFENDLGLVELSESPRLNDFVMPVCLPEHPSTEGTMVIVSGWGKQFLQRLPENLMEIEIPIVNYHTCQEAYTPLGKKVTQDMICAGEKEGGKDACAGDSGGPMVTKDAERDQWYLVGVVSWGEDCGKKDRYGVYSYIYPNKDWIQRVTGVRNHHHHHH

B1: Example 174: ((N-Me)G)-IC+SRS-((tBu)A)-PPI-(Pen)+IP-(PEG3(16atoms))-NH2 (peptide)
peptide: [Sar]ICSRS[tBuAla]PPI[Pen]IP[PEG4]-NH2
modifications: disulfide 3-11; N-terminus assumed
SMILES: CC[C@H](C)[C@H](NC(=O)CNC)C(=O)N[C@H]1CSSC(C)(C)[C@@H](C(=O)N[C@H](C(=O)N2CCC[C@H]2C(=O)NCCOCCOCCOCCOCCC(N)=O)[C@@H](C)CC)NC(=O)[C@H]([C@@H](C)CC)NC(=O)[C@@H]2CCCN2C(=O)[C@@H]2CCCN2C(=O)[C@H](CC(C)(C)C)NC(=O)[C@H](CO)NC(=O)[C@H](CCCNC(=N)N)NC(=O)[C@H](CO)NC1=O
B2: Example 187: (4-(Aminomethyl)benzoic acid)-IC+SRS-((tBu)A)-PPI-(Pen)+IPD-NH2 (peptide)
peptide: [4Amb]ICSRS[tBuAla]PPI[Pen]IPD-NH2
modifications: disulfide 3-11; N-terminus assumed
SMILES: CC[C@H](C)[C@H](NC(=O)c1ccc(CN)cc1)C(=O)N[C@H]1CSSC(C)(C)[C@@H](C(=O)N[C@H](C(=O)N2CCC[C@H]2C(=O)N[C@@H](CC(=O)O)C(N)=O)[C@@H](C)CC)NC(=O)[C@H]([C@@H](C)CC)NC(=O)[C@@H]2CCCN2C(=O)[C@@H]2CCCN2C(=O)[C@H](CC(C)(C)C)NC(=O)[C@H](CO)NC(=O)[C@H](CCCNC(=N)N)NC(=O)[C@H](CO)NC1=O
B3: Example 194: ((N-Me)G)-IC+SRSLP-(Oic)-I-(Pen)+I-((5-Azaspiro[2.4]heptane-1-carboxylic acid)-OH (peptide)
peptide: [Sar]ICSRSLP[Oic]I[Pen]I[5‑Azaspiro(2.4)heptane‑1‑carboxylic acid]-OH
modifications: disulfide 3-11
B4: Example 168: ((N-Me)G)-IC+SRSLP-(Oic)-I-(Pen)+IP-(PEG8(28 atoms))-NH2 (peptide)
peptide: [Sar]ICSRSLP[Oic]I[Pen]IP[PEG8]-NH2
modifications: disulfide 3-11; N-terminus assumed
SMILES: CC[C@H](C)[C@H](NC(=O)CNC)C(=O)N[C@H]1CSSC(C)(C)[C@@H](C(=O)N[C@H](C(=O)N2CCC[C@H]2C(=O)NCCOCCOCCOCCOCCOCCOCCOCCOCCC(N)=O)[C@@H](C)CC)NC(=O)[C@H]([C@@H](C)CC)NC(=O)[C@@H]2C[C@@H]3CCCC[C@@H]3N2C(=O)[C@@H]2CCCN2C(=O)[C@H](CC(C)C)NC(=O)[C@H](CO)NC(=O)[C@H](CCCNC(=N)N)NC(=O)[C@H](CO)NC1=O
B5: Example 185: AIC+SRSLP-(Oic)-I-((N-Me)C)+IPD-NH2 (peptide)
peptide: AICSRSLP[Oic]I[NMeC]IPD-NH2
modifications: disulfide 3-11; N-terminus assumed
SMILES: CC[C@H](C)[C@H](NC(=O)[C@H](C)N)C(=O)N[C@H]1CSSC[C@@H](C(=O)N[C@H](C(=O)N2CCC[C@H]2C(=O)N[C@@H](CC(=O)O)C(N)=O)[C@@H](C)CC)N(C)C(=O)[C@H]([C@@H](C)CC)NC(=O)[C@@H]2C[C@@H]3CCCC[C@@H]3N2C(=O)[C@@H]2CCCN2C(=O)[C@H](CC(C)C)NC(=O)[C@H](CO)NC(=O)[C@H](CCCNC(=N)N)NC(=O)[C@H](CO)NC1=O
B6: Example 171: AIC+SRS-((tBu)A)-PPI-(Pen)+IP-(Tranexamic)-NH2 (peptide)
peptide: AICSRS[tBuAla]PPI[Pen]IP[Tranexamic]-NH2
modifications: disulfide 3-11
B7: Example 170: AIC+SRSLPPI-(Pen)+IPD-NH2 (peptide)
peptide: AICSRSLPPI[Pen]IPD-NH2
modifications: disulfide 3-11; N-terminus assumed
SMILES: CC[C@H](C)[C@H](NC(=O)[C@H](C)N)C(=O)N[C@H]1CSSC(C)(C)[C@@H](C(=O)N[C@H](C(=O)N2CCC[C@H]2C(=O)N[C@@H](CC(=O)O)C(N)=O)[C@@H](C)CC)NC(=O)[C@H]([C@@H](C)CC)NC(=O)[C@@H]2CCCN2C(=O)[C@@H]2CCCN2C(=O)[C@H](CC(C)C)NC(=O)[C@H](CO)NC(=O)[C@H](CCCNC(=N)N)NC(=O)[C@H](CO)NC1=O

Key:
[1] = target: T1, recombinant rat MASP1 active protease …; experiment: cell-based or functional assay
[2] = target: recombinant rat MASP2 active protease (amino acids 296-685, C-terminal His Tag) (rat, UniProt Q9JJS8 296-685); experiment: cell-based or functional assay
Chain of recombinant rat MASP2 active protease (amino acids 296-685, C-terminal His Tag) (Q9JJS8 other isoform, or with tags, fused parts or gaps limits assumed): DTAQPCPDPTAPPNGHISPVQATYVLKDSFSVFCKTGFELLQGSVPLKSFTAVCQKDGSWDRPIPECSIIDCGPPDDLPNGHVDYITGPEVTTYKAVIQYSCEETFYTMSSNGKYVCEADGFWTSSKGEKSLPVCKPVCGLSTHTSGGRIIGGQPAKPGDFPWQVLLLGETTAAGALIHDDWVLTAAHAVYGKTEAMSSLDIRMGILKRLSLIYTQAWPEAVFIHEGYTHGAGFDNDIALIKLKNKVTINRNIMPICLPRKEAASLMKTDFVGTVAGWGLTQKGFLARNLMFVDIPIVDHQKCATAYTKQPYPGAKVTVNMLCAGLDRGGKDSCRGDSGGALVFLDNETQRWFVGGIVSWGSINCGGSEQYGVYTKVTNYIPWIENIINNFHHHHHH

| Binder | rat MASP1 IC50 [1] [nM] | rat MASP2 IC50 [2] [nM] |
| --- | --- | --- |
| B1 | 65.6 | 35.1 |
| B2 | 77 | 3.7 |
| B3 | 70 | 42 |
| B4 | 140 | 53 |
| B5 | 57 | 10.9 |
| B6 | 42 | 21 |
| B7 | 54 | 9.82 |
